Measurements published in patent US20230406921A1.
Residue numbers refer to the chain shown, from its start. Blank lines part the entries; values can stand above or below the binder they belong to.

Target: CD47 on the surface of human red blood cells (human) (UniProt Q08722)
Test: FACS, hRBC, 500 nM

B1: h140Hm13/h140Lm11 (antibody, V domains shown)
VH: EVQLVQSGAEVKKPGASVKVSCKASGYKFTNYVMSWVRQAPGQRLEWMGYINPYNDAIKYNEKFTGRVTITRDTSASTAYMELSSLRSEDTAVYYCAREGDFYANYGRLGFAYWGQGTLVTVSS
VL: DIQMTQSPSSLSASVGDRVTITCRASQDITNYLNWYQQKPGKAPKLLIYYTSRLSSGVPSRFSGSGSGTDYTFTISSLQPEDIATYFCQQGDTRPYTFGGGTKVEIK
- FACS (MFI): 789 MFI

B2: h140Hm13/h140Lm12 (antibody, V domains shown)
VH: B1 VH
VL: B1 VL with S55Q
- FACS (MFI): 946 MFI

B3: h140Hm13/h140Lm15 (antibody, V domains shown)
VH: B1 VH
VL: B1 VL with S55Q, R94K
- FACS (MFI): 954 MFI

B5: h140Hm13/h140Lm14 (antibody, V domains shown)
VH: B1 VH
VL: B1 VL with S55Q, R94Y
- FACS (MFI): 921 MFI

B7: h140Hm13/h140Lm13 (antibody, V domains shown)
VH: B1 VH
VL: B1 VL with S55H, R94F
- FACS (MFI): 1760 MFI

Second part, the binder after the results:

- FACS (MFI): 697 MFI
B4: h140Hm13/h140Lm18 (antibody, V domains shown)
VH: B1 VH
VL: B1 VL with S55Q, R94N

- FACS (MFI): 689 MFI
B6: h140Hm13/h140Lm17 (antibody, V domains shown)
VH: B1 VH
VL: B1 VL with S55Q, R94E

- FACS (MFI): 721 MFI
B8: h140Hm13/h140Lm16 (antibody, V domains shown)
VH: B1 VH
VL: B1 VL with S55Q, R94S
